These results are taken from the supplement of paper PMC5998384.

Data set [1] concerns HeLa Kyoto. The data set can be described thus: thermal stability score vs G1/S (z-score of summed log2 fold changes over temperatures); higher = more thermally stable than in G1/S.
Data set [2] has as its system HeLa Kyoto. Briefly: melting temperature (median over replicates), in situ; higher = more thermally stable.
For data set [3], the system named is HeLa Kyoto. Briefly: solubility in G1/S (NP-40 vs SDS abundance) (log2 ratio); higher = more soluble. To be noted: cell cycle stage: G1/S.
Data set [4] deals with HeLa Kyoto. The data set can be described thus: solubility change mitosis vs G1/S (difference of NP-40 vs SDS log2 ratios) (log2 ratio difference); higher = more soluble in mitosis.
Setting [5] is: cell cycle stage: early G1 (4.5 h after nocodazole release).
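Throughout, for melting temperature (median over replicates), in situ: HeLa Kyoto cells synchronized by double thymidine or nocodazole block, proteins quantified by TMT10plex mass spectrometry, three independent biological replicates.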
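Throughout, for solubility change mitosis vs G1/S (difference of NP-40 vs SDS log2 ratios): synchronized HeLa Kyoto cells (double thymidine block for G1/S, nocodazole release for mitosis), protein amounts in NP-40 versus SDS lysates quantified by mass spectrometry, three biological replicates.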
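Throughout, for solubility in G1/S (NP-40 vs SDS abundance): HeLa Kyoto cells arrested at G1/S by double thymidine block, proteins quantified by TMT10plex mass spectrometry in mild NP-40 versus SDS extracts, three biological replicates.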
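Throughout, for thermal stability score vs G1/S (z-score of summed log2 fold changes over temperatures): synchronized HeLa Kyoto cells, proteins quantified by TMT10plex mass spectrometry, three biological replicates, mitosis taken 0.5 h after nocodazole release, G1/S directly after double thymidine block.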

Consider “MSALEWYAHKSLGDGIFWIQERFYESGNRANIWLVRGSEQDVVIDTGLGLRSLPEYLYSSGLLQDREAKEDAARRPLLAVATHVHFDHSGGLYQFDRVAVHHAEAEALARGDNFETVTWLSDSEVVRTPSPGWRARQFRVQAVQPTLILQDGDVINLGDRQLTVMHMPGHSRGSICLHDKDRKILFSGDVVYDGSLIDWLPYSRISDYVGTCERLIELVDRGLVEKVLPGHFNTFGAERLFRLASNYISKAGICHKVSTFAMRSLASLALRVTNSRTSP [MBLAC2]”, for which the thermal stability score was -1.94 in data set [1] (setting [5]) and -1.79 in data set [1] (cell cycle stage: mitosis). For the same sequence, the values for the melting temperature in data set [2] (cell cycle stage: G1/S) and in data set [2] (cell cycle stage: mitosis) were 55.4 °C and 54.6 °C, respectively. In data set [3], the “solubility in G1/S (log2)” value was -0.203. Also, in data set [4], the “solubility change mitosis (log2)” value was 0.0124.

For “MSAPAGSSHPAASARIPPKFGGAAVSGAAAPAGPGAGPAPHQQNGPAQNQMQVPSGYGLHHQNYIAPSGHYSQGPGKMTSLPLDTQCGDYYSALYTVPTQNVTPNTVNQQPGAQQLYSRGPPAPHIVGSTLGSFQGAASSASHLHTSASQPYSSFVNHYNSPAMYSASSSVASQGFPSTCGHYAMSTVSNAAYPSVSYPSLPAGDTYGQMFTSQNAPTVRPVKDNSFSGQNTAISHPSPLPPLPSQQHHQQQSLSGYSTLTWSSPGLPSTQDNLIRNHTGSLAVANNNPTITVADSLSCPVMQNVQPPKSSPVVSTVLSGSSGSSSTRTPPTANHPVEPVTSVTQPSELLQQKGVQYGEYVNNQASSAPTPLSSTSDDEEEEEEDEEAGVDSSSTTSSASPMPNSYDALEGGSYPDMLSSSASSPAPDPAPEPDPASAPAPASAPAPVVPQPSKMAKPFGYGYPTLQPGYQNATAPLISGVQPSNPVYSGFQQYPQQYPGVNQLSSSIGGLSLQSSPQPESLRPVNLTQERNILPMTPVWAPVPNLNADLKKLNCSPDSFRCTLTNIPQTQALLNKAKLPLGLLLHPFRDLTQLPVITSNTIVRCRSCRTYINPFVSFIDQRRWKCNLCYRVNDVPEEFMYNPLTRSYGEPHKRPEVQNSTVEFIASSDYMLRPPQPAVYLFVLDVSHNAVEAGYLTILCQSLLENLDKLPGDSRTRIGFMTFDSTIHFYNLQEGLSQPQMLIVSDIDDVFLPTPDSLLVNLYESKELIKDLLNALPNMFTNTRETHSALGPALQAAFKLMSPTGGRVSVFQTQLPSLGAGLLQSREDPNQRSSTKVVQHLGPATDFYKKLALDCSGQQTAVDLFLLSSQYSDLASLACMSKYSAGCIYYYPSFHYTHNPSQAEKLQKDLKRYLTRKIGFEAVMRIRCTKGLSMHTFHGNFFVRSTDLLSLANINPDAGFAVQLSIEESLTDTSLVCFQTALLYTSSKGERRIRVHTLCLPVVSSLADVYAGVDVQAAICLLANMAVDRSVSSSLSDARDALVNAVVDSLSAYGSTVSNLQHSALMAPSSLKLFPLYVLALLKQKAFRTGTSTRLDDRVYAMCQIKSQPLVHLMKMIHPNLYRIDRLTDEGAVHVNDRIVPQPPLQKLSAEKLTREGAFLMDCGSVFYIWVGKGCDNNFIEDVLGYTNFASIPQKMTHLPELDTLSSERARSFITWLRDSRPLSPILHIVKDESPAKAEFFQHLIEDRTEAAFSYYEFLLHVQQQICK [SEC24B]”, the thermal stability score in data set [1] (setting [5]) was found to be 1.03; in data set [1] (cell cycle stage: mitosis), 1.85. Also, the melting temperature in data set [2] (cell cycle stage: G1/S) came to 48.8 °C; in data set [2] (cell cycle stage: mitosis), 49.5 °C. The “solubility in G1/S (log2)” value in data set [3] is -0.132. For the same sequence, the “solubility change mitosis (log2)” value in data set [4] is -0.119.

On to “MSASASVGGPVPQPPPGPAAALPPGSAARALHVELPSQQRRLRHLRNIAARNIVNRNGHQLLDTYFTLHLCSTEKIYKEFYRSEVIKNSLNPTWRSLDFGIMPDRLDTSVSCFVVKIWGGKENIYQLLIEWKVCLDGLKYLGQQIHARNQNEIIFGLNDGYYGAPFEHKGYSNAQKTILLQVDQNCVRNSYDVFSLLRLHRAQCAIKQTQVTVQKIGKEIEEKLRLTSTSNELKKKSECLQLKILVLQNELERQKKALGREVALLHKQQIALQDKGSAFSAEHLKLQLQKESLNELRKECTAKRELFLKTNAQLTIRCRQLLSELSYIYPIDLNEHKDYFVCGVKLPNSEDFQAKDDGSIAVALGYTAHLVSMISFFLQVPLRYPIIHKGSRSTIKDNINDKLTEKEREFPLYPKGGEKLQFDYGVYLLNKNIAQLRYQHGLGTPDLRQTLPNLKNFMEHGLMVRCDRHHTSSAIPVPKRQSSIFGGADVGFSGGIPSPDKGHRKRASSENERLQYKTPPPSYNSALAQPVTTVPSMGETERKITSLSSSLDTSLDFSKENKKKGEDLVGSLNGGHANVHPSQEQGEALSGHRATVNGTLLPSEQAGSASVQLPGEFHPVSEAELCCTVEQAEEIIGLEATGFASGDQLEAFNCIPVDSAVAVECDEQVLGEFEEFSRRIYALNENVSSFRRPRRSSDK [UVRAG]”, for which the figures for the thermal stability score in data set [1] (setting [5]) and in data set [1] (cell cycle stage: mitosis) were 0.204 and -0.16, respectively. Also, the melting temperature came to 51.7 °C in data set [2] (cell cycle stage: G1/S) and 52.4 °C in data set [2] (cell cycle stage: mitosis). Moreover, the “solubility in G1/S (log2)” value in data set [3] amounted to 0.216. Further, the “solubility change mitosis (log2)” value in data set [4] was -0.117.

“MSASSLLEQRPKGQGNKVQNGSVHQKDGLNDDDFEPYLSPQARPNNAYTAMSDSYLPSYYSPSIGFSYSLGEAAWSTGGDTAMPYLTSYGQLSNGEPHFLPDAMFGQPGALGSTPFLGQHGFNFFPSGIDFSAWGNNSSQGQSTQSSGYSSNYAYAPSSLGGAMIDGQSAFANETLNKAPGMNTIDQGMAALKLGSTEVASNVPKVVGSAVGSGSITSNIVASNSLPPATIAPPKPASWADIASKPAKQQPKLKTKNGIAGSSLPPPPIKHNMDIGTWDNKGPVAKAPSQALVQNIGQPTQGSPQPVGQQANNSPPVAQASVGQQTQPLPPPPPQPAQLSVQQQAAQPTRWVAPRNRGSGFGHNGVDGNGVGQSQAGSGSTPSEPHPVLEKLRSINNYNPKDFDWNLKHGRVFIIKSYSEDDIHRSIKYNIWCSTEHGNKRLDAAYRSMNGKGPVYLLFSVNGSGHFCGVAEMKSAVDYNTCAGVWSQDKWKGRFDVRWIFVKDVPNSQLRHIRLENNENKPVTNSRDTQEVPLEKAKQVLKIIASYKHTTSIFDDFSHYEKRQEEEESVKKERQGRGK [YTHDF2]”: the thermal stability score in data set [1] (setting [5]) is -0.975; in data set [1] (cell cycle stage: mitosis), -1.92. In addition, the melting temperature in data set [2] (cell cycle stage: G1/S) stood at 51 °C; in data set [2] (cell cycle stage: mitosis), 50.7 °C. Further, in data set [3], the “solubility in G1/S (log2)” value amounted to 0.00424. For the same sequence, in data set [4], the “solubility change mitosis (log2)” value was found to be 0.0349.
